This note sets out measurements from the supplement of paper PMC12764529.

± gives the half width of the 95% confidence interval.

Data set [1] in a line: folding stability dG unfold (combined trypsin and chymotrypsin); higher = more stable. Summed up: (§1)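 Designed mini-proteins (under 80 residues, no cysteine) in a PA-tagged cDNA display construct were digested with trypsin and chymotrypsin. Each protease was used at 11 concentrations (threefold dilutions) plus a no-protease condition, followed by sequencing. K50 was inferred by Bayesian fitting of sequencing counts, and unfolding free energy was derived against a sequence-predicted unfolded-state K50 and a shared folded-state K50, per protease or combined. Only designs with AlphaFold2 dimer inter-PAE above 15 were kept.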

The nature of data set [2]: folding stability dG unfold from chymotrypsin proteolysis; higher = more stable. Summed up:
as §1

Data set [3] is described as follows: folding stability dG unfold from trypsin proteolysis; higher = more stable. In short, it runs like this: as §1

Regarding “SAGGSAGGSAGGSGDPNNPVTLLVLDVPSPEPAGTVYYFPDGYVAVNFPSINRTLVFYGSAGGSAGGSAGGS [r4_78_TrMRF]”, the entries for the “folding stability dG unfold” value in data set [1], in data set [2] and in data set [3] were 1.2 ± 0.17 kcal/mol, 1.42 ± 0.15 kcal/mol and 0.766 ± 0.036 kcal/mol, respectively.

Regarding “SAGGSAGGSAGGSGLSFEIVEEREELLPDGRPRRRIFATLPGGRRLVIDDDGRITIDPDSAGGSAGGSAGGS [r4_111_TrMRF]”, the “folding stability dG unfold” value in data set [1] was 0.897 ± 0.25 kcal/mol; in data set [2], 0.968 ± 0.15 kcal/mol; in data set [3] it was 0.45 ± 0.33 kcal/mol.

Turning to “SAGGSAGGSAGGSGMVNLPEPIKVTKEEPLPDGSVRYTIEYPDSTITVFKYPDGIKIESSAGGSAGGSAGGS [r4_280_JUSTAS]”, the “folding stability dG unfold” value in data set [1] was 0.393 ± 0.1 kcal/mol; in data set [2], 0.29 ± 0.24 kcal/mol; in data set [3] it was 0.35 ± 0.049 kcal/mol.

Turning to “SAGGSAGGSAGGSGPPKLRLLRRVEVVYDGLVLPPNFPLPPSAPPNLKVFVSLVTLPEGSAGGSAGGSAGGS [r4_436_TrMRF]”, the “folding stability dG unfold” value in data set [1] came to 2.35 ± 0.43 kcal/mol; in data set [2] it was 1.83 ± 0.25 kcal/mol; in data set [3], 3.11 ± 0.091 kcal/mol.

For the sequence “SAGGSAGGSAGGSGSKEPKYYYRVVVEDDGNPVVRTYAPDEPLPAPANLKVFPFLADEESAGGSAGGSAGGS [r4_107_TrMRF]”, the “folding stability dG unfold” value was 0.452 ± 0.25 kcal/mol in data set [1], 0.857 ± 0.19 kcal/mol in data set [2] and -0.421 ± 0.81 kcal/mol in data set [3].

Take “SAGGSAGGSAGGSGSSVLVKTTTTLSVAPGATITLPDGTVYTVPAGVPVTVTTWVLVETSAGGSAGGSAGGS [r4_232_JUSTAS]”: the “folding stability dG unfold” value in data set [1] stood at 3.38 ± 0.13 kcal/mol; in data set [2] it was 4.05 ± 0.092 kcal/mol; in data set [3], 2.31 ± 0.14 kcal/mol.

In the case of “SAGGSAGGSAGGSIEIEITVELEDGYYLRISARFELNEDGSLKLEIKIELIKIEPGQELSAGGSAGGSAGGS [r10_241_TrROS_Hall]”, the entries for the “folding stability dG unfold” value in data set [1], in data set [2] and in data set [3] were 3.18 ± 0.32 kcal/mol, 2.27 ± 0.1 kcal/mol and 3.52 ± 0.48 kcal/mol, respectively.

Turning to “SAGGSAGGSAGGSIEIIVRTPEMAKQMAKRIQKILADQGNPPPLKIEIHVIPPDDLPPWSAGGSAGGSAGGS [r4_472_TrROS]”, the “folding stability dG unfold” value in data set [1] was 0.388 ± 0.15 kcal/mol; in data set [2], 0.571 ± 0.092 kcal/mol; in data set [3], -0.0989 ± 0.26 kcal/mol.

Consider “SAGGSAGGSAGGSILLITTHPKDAEKAAKEIEKILAELDIPPDAKIEVYVVPKEYLPDESAGGSAGGSAGGS [r4_472_TrMRF]”, for which the “folding stability dG unfold” value was 0.329 ± 0.14 kcal/mol in data set [1], 0.176 ± 0.17 kcal/mol in data set [2] and 0.323 ± 0.035 kcal/mol in data set [3].

As for “SAGGSAGGSAGGSIPPSDVTTEVDPNTPLTTVTYPSGVVVTETFPPDGTSTTTVDTAAGSAGGSAGGSAGGS [r10_170_JUSTAS]”, the “folding stability dG unfold” value in data set [1] worked out at 1.56 ± 0.039 kcal/mol; in data set [2] it was 1.23 ± 0.028 kcal/mol; in data set [3] it was 2.01 ± 0.038 kcal/mol.

Regarding “SAGGSAGGSAGGSITITTEPLPSGGRRVTVTLPGSSVVLELEFSPDETEEEVRAAVEAASAGGSAGGSAGGS [r10_825_JUSTAS]”, the “folding stability dG unfold” value amounted to 1.93 ± 0.09 kcal/mol in data set [1], 2.12 ± 0.06 kcal/mol in data set [2] and 1.47 ± 0.035 kcal/mol in data set [3].

Regarding “SAGGSAGGSAGGSITITWNPESGTVKIKPPNNKKEIEIPAENMTPSQIIDQAKDNGVEVSAGGSAGGSAGGS [r4_49_TrROS]”, the “folding stability dG unfold” value in data set [1] is 0.935 ± 0.17 kcal/mol; in data set [2] it was 1.39 ± 0.1 kcal/mol; in data set [3] it was -0.0527 ± 0.12 kcal/mol.

“SAGGSAGGSAGGSIVIEVDTLEEAKKLAEKLNLKVTEVKEVDGKLYVKIEIKSPEELKKSAGGSAGGSAGGS [r10_218_TrROS_Hall]”: the entries for the “folding stability dG unfold” value in data set [1], in data set [2] and in data set [3] were 1.53 ± 0.12 kcal/mol, 2.002 ± 0.018 kcal/mol and 0.204 ± 0.11 kcal/mol, respectively.

Turning to “SAGGSAGGSAGGSKDERTLTLRLRVTTPIYGTDADGNPLEPIEVTKEYELTVTVPADLLSAGGSAGGSAGGS [r4_425_TrMRF]”, the “folding stability dG unfold” value in data set [1] was found to be 2.1 ± 0.16 kcal/mol; in data set [2] it was 2.69 ± 0.099 kcal/mol; in data set [3] it was 1.18 ± 0.082 kcal/mol.

In the case of “SAGGSAGGSAGGSKFLVKTSVEVFKNPVGGNRYGAKITTLAVNPDTNEVTLSESYLPLDLSAGGSAGGSAGG [r7_216_TrMRF]”, the “folding stability dG unfold” value in data set [1] turned out to be 0.62 ± 0.12 kcal/mol; in data set [2], 0.842 ± 0.13 kcal/mol; in data set [3], 0.114 ± 0.11 kcal/mol.

Consider “SAGGSAGGSAGGSKIEIEEENGELKITIEVDGKKYEITIPKDMTLEEALKKALEKLPGLSAGGSAGGSAGGS [r4_191_TrROS_Hall]”, for which the results for the “folding stability dG unfold” value in data set [1], in data set [2] and in data set [3] were 3.09 ± 0.18 kcal/mol, 2.5 ± 0.087 kcal/mol and 3.45 ± 0.69 kcal/mol, respectively.

“SAGGSAGGSAGGSKIENIKDIERNPNPDGHYMITIPNGWQIVVRMDKNGKMEIEIVPLKSAGGSAGGSAGGS [r4_177_TrROS]”: the “folding stability dG unfold” value in data set [1] was found to be 1.82 ± 0.15 kcal/mol; in data set [2], 1.88 ± 0.039 kcal/mol; in data set [3] it was 1.87 ± 0.076 kcal/mol.

With “SAGGSAGGSAGGSKKKKKKKKKKVVKLTVLIEKDGELYLVEIEFDKDGKIVSISVEKLPSAGGSAGGSAGGS [r4_192_TrROS_Hall]”, the “folding stability dG unfold” value turned out to be 3.27 ± 0.32 kcal/mol in data set [1], 4 ± 0.27 kcal/mol in data set [2] and 2.12 ± 0.16 kcal/mol in data set [3].
